In patent US20050164311A1, “Biological assay detection method” (priority 2001, published 2005):
One block for each compound: values may come before it.

Legend:
[1] = molecular target: T1, Protein phosphatase 2A1 (PP2A1) (Homo sapiens, UniProt P67775); assay: Protein phosphatase assay, TR-FRET detection with [Eu3+]GST-PDZ, inhibition experiments; format: biochemical; conditions: PP2A1 15 pM; substrate biotin-HRRAARYLEpSAV-OH; quenched after 60 min; condition Dilution
T1 construct: purchased Biomol Research Laboratories (Plymouth Meeting, Pa.)
Method: (§1) Assays were carried out in 96-well black, low binding, Microfluor2 plates (Dynex, Va.). Assay plates were read using a Victor^2V microplate analyzer (Perkin Elmer Wallac (Turku, Finland)), with 337 nm excitation. Fluorescence emission was measured at 665 nm for FRET signal and 615 nm for Eu^3+ chelate, and results are expressed as the ratio of fluorescence intensities, FI665nm/FI615 nm.
For the initial time courses, 20 μl of biotin-HRRAARYLEpSAV-OH (SEQ. ID No. 4) (100 nM in phosphatase buffer: 50 mM Tris, pH 7.4, 10% glycerol, 14 mM β-mercaptoethanol, 0.2 mg/ml BSA) was mixed with 20 μl of PP2A1 (2× in phosphatase buffer), and the reaction solution was incubated at 32° C. At different time points, 40 μl aliquots were quenched with […] of a 5×TR-FRET mixture of Cantharidic Acid (5 μM, [Eu^3+]GST-PDZ (1.6 nM), and [665]SA (15.6 nM) in PBSTB, for 60 min, at 25° C., and read.
For the inhibition experiments, 2 μl of inhibitor were added to 20 μl PP2A1 (30 pM in phosphatase buffer), and the reaction was initiated by addition of 20 μl of peptide substrate (100 nM in phosphatase buffer). The reaction was quenched after 60 min with the addition of 10 μl of 5×TR-FRET quenching/detection mixture, as described above. Background was measured from a reaction mixture with substrate, detection mixture and no enzyme.

[2] = molecular target: T2, Porcine carboxypeptidase B (CPB) (Sus scrofa, UniProt P09955); assay: Carboxypeptidase B assay, TR-FRET detection with [Eu3+]GST-PDZ, inhibition experiments; format: biochemical; conditions: CPB 100 pM; substrate biotin-HRRSARYLESSVR-OH; quenched after 30 min; condition Dilution
T2 construct: purchased Sigma (St. Louis, Mo.)
T2 sequence (P09955 111-416): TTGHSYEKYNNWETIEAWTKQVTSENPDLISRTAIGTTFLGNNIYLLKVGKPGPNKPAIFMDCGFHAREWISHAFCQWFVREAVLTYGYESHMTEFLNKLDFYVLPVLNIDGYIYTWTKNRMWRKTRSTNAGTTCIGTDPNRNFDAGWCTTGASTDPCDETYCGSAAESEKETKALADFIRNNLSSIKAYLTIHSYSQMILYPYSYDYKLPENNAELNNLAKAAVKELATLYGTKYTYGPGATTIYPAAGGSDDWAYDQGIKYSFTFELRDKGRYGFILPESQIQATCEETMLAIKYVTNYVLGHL
Method: as §1
For the initial time courses, 20 μl of biotin-HRRSARYLESSVR-OH (SEQ. ID No. 7), (100 nM in 10 mM phosphate, 150 mM NaCl, 0.05% tween-20, 0.1% BSA (PBSTB)) was mixed with 20 μl of CPB (2× in PBSTB), and the reaction quenched with 10 μl of a 5×TR-FET mixture of PCI (1 μM, [Eu^3+]GST-PDZ (6.25 nM), and [X1665]SA (62.5 nM) in PBSTB, for 60 min, at 25° C., and read.
For the inhibition experiments, 2 Ill of inhibitor was added to 20 μl CPB (200 pM in PBSTB), and the reaction was initiated by addition of 20 μl peptide substrate (100 nM in PBSTB). The reaction was quenched after 30 min with the addition of 10 μl of 5×TR-FRET quenching/detection mixture, as described above. Background was measured from a reaction mixture with substrate, detection mixture and no enzyme.

[3] = molecular target: Biotin-…-OH; assay: TR-FRET, 4 nM product peptide plus 36 nM masked substrate biotin-…-NH2 (Asp-N pair); data not shown
[4] = molecular target: Biotin-…-OH; assay: TR-FRET, 4 nM product peptide plus 36 nM masked substrate biotin-…-OH (carboxypeptidase B pair); data not shown
[5] = molecular target: Biotin-…-OH; assay: TR-FRET, 4 nM product peptide plus 36 nM masked substrate biotin-…pSAV-OH; optimal [Eu3+]GST-PDZ 0.3 nM and [XL665]SA 3.1 nM
[6] = molecular target: Porcine carboxypeptidase B (porcine) (UniProt P09955); assay: cell-based or functional assay

T1 sequence (P63151 whole entry): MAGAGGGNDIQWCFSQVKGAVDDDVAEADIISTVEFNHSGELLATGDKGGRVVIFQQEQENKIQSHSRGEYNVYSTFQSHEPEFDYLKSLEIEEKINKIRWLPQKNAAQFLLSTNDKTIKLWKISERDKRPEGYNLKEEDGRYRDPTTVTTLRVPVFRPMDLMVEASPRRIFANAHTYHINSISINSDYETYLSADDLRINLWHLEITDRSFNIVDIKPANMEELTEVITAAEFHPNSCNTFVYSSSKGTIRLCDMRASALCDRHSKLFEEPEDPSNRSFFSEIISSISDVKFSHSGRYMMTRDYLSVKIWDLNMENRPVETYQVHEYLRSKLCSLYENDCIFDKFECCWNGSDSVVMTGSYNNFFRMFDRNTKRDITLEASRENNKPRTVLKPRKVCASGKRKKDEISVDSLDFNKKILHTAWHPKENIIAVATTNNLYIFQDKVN
T1 sequence (P30153 whole entry, further chain): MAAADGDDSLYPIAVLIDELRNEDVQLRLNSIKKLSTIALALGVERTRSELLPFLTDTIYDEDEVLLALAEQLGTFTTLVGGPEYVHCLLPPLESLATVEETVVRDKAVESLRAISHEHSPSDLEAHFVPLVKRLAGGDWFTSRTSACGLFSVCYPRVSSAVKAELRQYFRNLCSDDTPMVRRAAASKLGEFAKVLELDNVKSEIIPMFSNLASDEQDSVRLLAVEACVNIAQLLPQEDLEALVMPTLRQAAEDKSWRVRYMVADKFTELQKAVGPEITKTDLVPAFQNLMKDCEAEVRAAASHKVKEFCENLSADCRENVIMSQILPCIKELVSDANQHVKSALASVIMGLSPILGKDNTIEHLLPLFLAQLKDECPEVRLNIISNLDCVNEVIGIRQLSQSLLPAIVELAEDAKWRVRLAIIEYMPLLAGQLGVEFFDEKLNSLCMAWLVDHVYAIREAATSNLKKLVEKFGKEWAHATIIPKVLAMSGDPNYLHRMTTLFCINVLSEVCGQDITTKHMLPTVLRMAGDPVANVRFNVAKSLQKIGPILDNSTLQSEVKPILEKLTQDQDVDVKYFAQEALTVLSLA
T1 sequence (P67775 whole entry): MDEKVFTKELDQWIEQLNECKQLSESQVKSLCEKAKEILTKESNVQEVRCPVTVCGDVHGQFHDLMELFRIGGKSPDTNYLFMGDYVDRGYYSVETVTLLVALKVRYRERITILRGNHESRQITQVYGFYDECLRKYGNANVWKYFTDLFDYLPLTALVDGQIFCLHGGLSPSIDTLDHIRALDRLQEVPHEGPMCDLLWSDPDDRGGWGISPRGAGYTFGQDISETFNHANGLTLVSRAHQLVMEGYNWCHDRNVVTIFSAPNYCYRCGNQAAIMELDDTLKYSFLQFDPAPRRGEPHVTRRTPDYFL

Compound: CC1(C(=O)O)C2CCC(O2)C1(C)C(=O)O (stereo not shown) [Cantharidic Acid, cantharidic acid]
- IC50 [1]: 56 nM

Compound: C=C1[C@@H](O)[C@@H]2O[C@]3(CC[C@H](/C=C/[C@@H](C)[C@@H]4CC(C)=C[C@@]5(O[C@H](C[C@@](C)(O)C(=O)O)CC[C@H]5O)O4)O3)CC[C@H]2O[C@@H]1[C@@H](O)C[C@H](C)[C@H]1O[C@@]2(CCCCO2)CC[C@H]1C [Okadaic Acid, okadaic acid]
- IC50 [1]: 0.015 nM

Compound: PCI: potato carboxypeptidase inhibitor from Sigma; the abbreviation list calls it protein carboxypeptidase inhibitor (QQHADPICNKPCKTHDDCSGAWFCQACWNSARTCGPYVG)
- IC50 [2]: 10 nM

- signal-to-background [3]: > 10 fold
- signal-to-background [4]: > 10 fold
- signal-to-background [5]: > 10 fold
Compound: [Eu3+]GST-PDZ (GST fused to PDZ module 3 of PSD-95, labeled with Eu3+ chelate ITC) (from UniProt P31016 300-402)

- IC50 (inhibition of CPB hydrolysis of biotin-…-OH, TR-FRET read-out) [6]: 10 nM
Compound: potato carboxypeptidase inhibitor (from UniProt P01075 1-39)
